# Laboratory results published in article PMC4314829, “Unraveling the kinetic diversity of microbial 3-dehydroquinate dehydratases of shikimate pathway” (AMB Express, 2015).
# B1: DHQase 3007 (Gluconobacter oxydans 621H) (protein)
# chain: MTAPKVLSRGQMKRPLITVLNGPNLNMLGLRQPGIYGHATLDDVEQVCIQAAERLDVAIDFRQTNGEGELVSWVQECRGRADGIVINPAAYGHTSIALLDALLAVELPVIEVHISNIHRREPFRHHTYVSQAAIGVICGLGVRGYAHALQAITDMIEDEG
# notes: full length, codon-optimised synthetic gene, pET28a His tag, E. coli BL21(DE3), Ni-NTA
# B2: DHQase 3026 (Natranaerobius thermophilus JW/NM-WN-LF) (protein)
# chain: MKIYVIHGPNINMLGNRESEHYGTQTLEELNSSIIKESESLGIEVEIFQFNSEGDIITKLQEANNYAQGVIINPGAYTHYSIAIRDAIAAISKPVIEVHISNIFNRESFRSHSVIAPVAKGQISGMGFAGYLLALNAFIKTKEG
# notes: as for B1
# B3: DHQase 3014 (Nocardia brasiliensis ATCC 700358) (protein)
# chain: MSAPGPILVLNGPNLNMLGTRQPEVYGSATLDDVVELCRQTAERYGREIAAFQSNSEGALIDRIHRARGVESAIVINPGGLTHTSVALRDALVIPEVPIVEVHISNVHAREEFRHHSYISPIATAVVAGMGIQGYAAAIEFLVRSA
# notes: as for B1
# B4: DHQase 3010 (Psychromonas ingrahamii 37) (protein)
# chain: MTQQIKLLVLNGPNLNLLGQREPEVYGSKTLDDIIKALTDEAALQNVALSHLQSNREYELIEKIHDAFEKIDFIIINPAAFTHTSVALRDALLGVNIPFIEVHLSNVHARESFRHHSYLSDIAQGVICGLGAKGYSFALQSAIGKLRNI
# notes: as for B1
# B5: DHQase 3016 (Streptomyces acidiscabies) (protein)
# chain: MPRTLANAPIMILNGPNLNLLGQRQPEIYGSDTLADVEALCVKAAATHGGTVDFRQSNHEGELVDWIHEARMDHCGIVINPGAYSHTSVAILDALNTCDGLPVIEVHISNIHKREAFRHHSYVSLRADGVIAGCGVQGYVFGVERVAALAGEGTARA
# notes: as for B1
# B6: DHQase 3037 (Paramagnetospirillum magneticum AMB-1) (protein)
# chain: MLGTRQPELYGTETLADIEAACRTHADSLGLTVEFSQTNMEGELVTSIQKCRGRAVGIIINAGAYTHTSVAILDALLAAEVPAIEVHLSNIHQRDSFRHHSYVAKAAKGMICGLGSHGYILALDALARLIKGNAEA
# notes: as for B1
# B7: DHQase 3021 (Parageobacillus thermoglucosidasius) (protein)
# chain: MAHLLLINGPNLNLLGKREPHIYGSTTLDSLEQELISFANEHGAALTCFQSNHEGAIIDRIHEAEGKYDGIILNAGAFTHYSYAIRDAIASISIPVVEVHISNIHAREPFRHQSVIAPVVAGQIVGFGLAGYRLAILALLEIKGRGDK
# notes: as for B1
# B8: DHQase 3012 (Arthrobacter crystallopoietes BAB-32) (protein)
# chain: MGNMSEHSTGSSTRKLLVLNGPNLNLLGTREPQIYGSDTLEDAETLAARAAEAHGLAVECLQSNHEGVLIDAIHAARGTAAGIVINPGGYTHTSVALRDALSGVDLPVVEVHISNIHRREEFRHHSYISGIAVAVIAGAGISGYKFAVDLLASRL
# notes: as for B1
# B9: DHQase 3003 (Alcanivorax borkumensis SK2) (protein)
# chain: MITANNDKFARGPILASILVLHGPNLNLLGTREPDKYGHTTLADINQQLQEQASKAGHHLQHLQSNAEYELVECIHDAHTEGVDFIIINPAAFTHTSVALRDALLAVNIPFIEVHLSNVHARETFRHHSFFSDIAKGVICGLGAIGYALALTAALEQLDD
# notes: as for B1
# B10: DHQase 3030 (Metallosphaera cuprina Ar-4) (protein)
# chain: MFSLMKPEIVVSLPVTRPDDLNKVNKIDGLVELRLDYSTELPNPEELIPFKHKVLVTLRDKEEGGRIKYDVDFKAKYLERLNELGILYDVEASFLERRKIEYVGKIVSAHYFSSLPSTEEIDQLFRKYEGAYTIKVAVASLPGYRELLSYVSGKPNATFMPMSNDPIERLAFSLLGSKLLYTYLESPTAQGQLSYTQAKQILECIFK
# notes: as for B1
# B11: DHQase 3024 (Halanaerobium hydrogeniformans) (protein)
# chain: MQKVAVIHGPNLNMLGLREPEIYGKNNLEMVNKNLKRKAKELDFEIEIMQSNHEGEIVDYLHQNFEQLDGVIINPGGLTHTSVILRDALAAVRLPVIEVHISNIHKREEFRHKSLTAAVAVGQITGLGVKGYTLALEGLKSILGREKY
# notes: as for B1
# B12: DHQase 3028 (Thermodesulfobium narugense DSM 14796) (protein)
# chain: MKKILVINGPNLNMLGTREPNIYGSITLHGLEELILNFAKELEMKVDFFQSNHEGDIIDKIHRTFDAYDAFIINPGAFTHYSYAIRDAIASITIPVIEVHLSNVHAREEFRKSSVIAPVCLGQISGLGELSYIAAIVALDKYLQKLEKRA
# notes: as for B1
# B13: DHQase 3027 (Ruminococcus champanellensis 18P13 = JCM 17042) (protein)
# chain: MRILVIHGPNLNLLGEREPGIYGKNDLAHVNGAILTRAKELGVECEVFQSNHEGEILVRLHEARHAFDGVVLNAGAYTHYSYAIRDAIAAIRIPCVEVHISNVHAREEFRHTSVIAPACLGVVCGFGGDSYLLALEGLVRHCAGQKTL
# notes: as for B1
# B14: DHQase 3025 (Acetivibrio clariflavus DSM 19732) (protein)
# chain: MKKILIINGPNLNLLGTREKEVYGTETLDDIAKKVAEEAAKLNVNIEFFQSNHEGDIIDKIHAARGNTDAIIINPGAYTHYSIAIRDAIKAVEIPTIEIHLSNIHAREEFRSHSVIAPVCVGQICGFGSNSYILGLNAAALL
# notes: as for B1
# Assays:
# Settings in all cases: DHQ 0.08 to 1.0 mmol/L; assay buffer, pH and temperature not given
# [1] = system: O=C1C[C@@](O)(C(=O)O)C[C@@H](O)[C@@H]1O; experiment: purified protein
# [2] = substrate: O=C1C[C@@](O)(C(=O)O)C[C@@H](O)[C@@H]1O; experiment: OD234 microplate assay, Lineweaver-Burk; format: biochemical, Gluconobacter oxydans
# Excerpt: OD234 microplate assay, Lineweaver-Burk on DHQase 3007
# [3] = substrate: O=C1C[C@@](O)(C(=O)O)C[C@@H](O)[C@@H]1O; experiment: OD234 microplate assay, Lineweaver-Burk; format: biochemical, Natranaerobius thermophilus
# Excerpt: OD234 microplate assay, Lineweaver-Burk on DHQase 3026
# [4] = substrate: O=C1C[C@@](O)(C(=O)O)C[C@@H](O)[C@@H]1O; experiment: OD234 microplate assay, Lineweaver-Burk; format: biochemical, Nocardia brasiliensis
# Excerpt: OD234 microplate assay, Lineweaver-Burk on DHQase 3014
# [5] = substrate: O=C1C[C@@](O)(C(=O)O)C[C@@H](O)[C@@H]1O; experiment: OD234 microplate assay, Lineweaver-Burk; format: biochemical, Psychromonas ingrahamii
# Excerpt: OD234 microplate assay, Lineweaver-Burk on DHQase 3010
# [6] = substrate: O=C1C[C@@](O)(C(=O)O)C[C@@H](O)[C@@H]1O; experiment: OD234 microplate assay, Lineweaver-Burk; format: biochemical, Streptomyces acidiscabies
# Excerpt: OD234 microplate assay, Lineweaver-Burk on DHQase 3016
# [7] = substrate: O=C1C[C@@](O)(C(=O)O)C[C@@H](O)[C@@H]1O; experiment: OD234 microplate assay, Lineweaver-Burk; format: biochemical, Paramagnetospirillum magneticum
# Excerpt: OD234 microplate assay, Lineweaver-Burk on DHQase 3037
# [8] = substrate: O=C1C[C@@](O)(C(=O)O)C[C@@H](O)[C@@H]1O; experiment: OD234 microplate assay, Lineweaver-Burk; format: biochemical, Parageobacillus thermoglucosidasius
# Excerpt: OD234 microplate assay, Lineweaver-Burk on DHQase 3021
# [9] = substrate: O=C1C[C@@](O)(C(=O)O)C[C@@H](O)[C@@H]1O; experiment: OD234 microplate assay, Lineweaver-Burk; format: biochemical, Crystallibacter crystallopoietes
# Excerpt: OD234 microplate assay, Lineweaver-Burk on DHQase 3012
# [10] = substrate: O=C1C[C@@](O)(C(=O)O)C[C@@H](O)[C@@H]1O; experiment: OD234 microplate assay, Lineweaver-Burk; format: biochemical, Alcanivorax borkumensis
# Excerpt: OD234 microplate assay, Lineweaver-Burk on DHQase 3003
# [11] = substrate: O=C1C[C@@](O)(C(=O)O)C[C@@H](O)[C@@H]1O; experiment: OD234 microplate assay, Lineweaver-Burk; format: biochemical, Metallosphaera cuprina
# Excerpt: OD234 microplate assay, Lineweaver-Burk on DHQase 3030
# [12] = substrate: O=C1C[C@@](O)(C(=O)O)C[C@@H](O)[C@@H]1O; experiment: OD234 microplate assay, Lineweaver-Burk; format: biochemical, Halanaerobium hydrogeniformans
# Excerpt: OD234 microplate assay, Lineweaver-Burk on DHQase 3024
# [13] = substrate: O=C1C[C@@](O)(C(=O)O)C[C@@H](O)[C@@H]1O; experiment: OD234 microplate assay, Lineweaver-Burk; format: biochemical, Thermodesulfobium narugense
# Excerpt: OD234 microplate assay, Lineweaver-Burk on DHQase 3028
# [14] = substrate: O=C1C[C@@](O)(C(=O)O)C[C@@H](O)[C@@H]1O; experiment: OD234 microplate assay, Lineweaver-Burk; format: biochemical, Ruminococcus champanellensis
# Excerpt: OD234 microplate assay, Lineweaver-Burk on DHQase 3027
# [15] = substrate: O=C1C[C@@](O)(C(=O)O)C[C@@H](O)[C@@H]1O; experiment: OD234 microplate assay, Lineweaver-Burk; format: biochemical, Acetivibrio clariflavus
# Excerpt: OD234 microplate assay, Lineweaver-Burk on DHQase 3025
molecule,measurement,setting,value
DHQase 3009 (Psychrobacter sp. PRwf-1),Km,[1],203.24 µM
same,Vmax,[1],254 µM/min
same,kcat,[1],31.7 s⁻¹
same,kcat/Km,[1],160000 M⁻¹ s⁻¹
B1,Km,[2],777.75 µM
same,Vmax,[2],146 µM/min
same,kcat,[2],77.1 s⁻¹
same,kcat/Km,[2],100000 M⁻¹ s⁻¹
B2,Km,[3],304.54 µM
same,Vmax,[3],177 µM/min
same,kcat,[3],3.8 s⁻¹
same,kcat/Km,[3],10000 M⁻¹ s⁻¹
B3,Km,[4],151.51 µM
same,Vmax,[4],216 µM/min
same,kcat,[4],3.83 s⁻¹
same,kcat/Km,[4],30000 M⁻¹ s⁻¹
B4,Km,[5],202.55 µM
same,Vmax,[5],48 µM/min
same,kcat,[5],10.6 s⁻¹
same,kcat/Km,[5],50000 M⁻¹ s⁻¹
B5,Km,[6],141.53 µM
same,Vmax,[6],745 µM/min
same,kcat,[6],212 s⁻¹
same,kcat/Km,[6],1.5e+06 M⁻¹ s⁻¹
B6,Km,[7],119.97 µM
same,Vmax,[7],232 µM/min
same,kcat,[7],73.2 s⁻¹
same,kcat/Km,[7],610000 M⁻¹ s⁻¹
B7,Km,[8],133.97 µM
same,Vmax,[8],130 µM/min
same,kcat,[8],5.33 s⁻¹
same,kcat/Km,[8],40000 M⁻¹ s⁻¹
B8,Km,[9],448.50 µM
same,Vmax,[9],4000 µM/min
same,kcat,[9],185 s⁻¹
same,kcat/Km,[9],410000 M⁻¹ s⁻¹
B9,Km,[10],210.71 µM
same,Vmax,[10],80.4 µM/min
same,kcat,[10],13.5 s⁻¹
same,kcat/Km,[10],60000 M⁻¹ s⁻¹
B10,Km,[11],92.76 µM
same,Vmax,[11],68.4 µM/min
same,kcat,[11],3.86 s⁻¹
same,kcat/Km,[11],40000 M⁻¹ s⁻¹
B11,Km,[12],526.07 µM
same,Vmax,[12],374 µM/min
same,kcat,[12],75.1 s⁻¹
same,kcat/Km,[12],140000 M⁻¹ s⁻¹
B12,Km,[13],180.72 µM
same,Vmax,[13],69.6 µM/min
same,kcat,[13],6.88 s⁻¹
same,kcat/Km,[13],40000 M⁻¹ s⁻¹
B13,Km,[14],255.54 µM
same,Vmax,[14],360 µM/min
same,kcat,[14],50.2 s⁻¹
same,kcat/Km,[14],200000 M⁻¹ s⁻¹
B14,Km,[15],368.46 µM
same,Vmax,[15],353 µM/min
same,kcat,[15],59.6 s⁻¹
same,kcat/Km,[15],160000 M⁻¹ s⁻¹
